Results from US20160228506A1, “Compositions and Formulations for Prevention and Reduction of Tumorigenesis, Cancer Cell Proliferation and Invasion, and Methods of Production and Use Thereof in Cancer Treatment” (PRONUTRIA, INC., priority 2013, published 2016).

B1: SEQID-00562: protein of the 168 nutritive polypeptide library (protein, listed as Lactobacillus acidophilus)
chain: MKKFASFVLGAVAGCAAGFLAGSLLVSDEQVDDVKNKIKDNDKLQDLKKKYDNGTEIVKNQLASFPKNVEDDSELKDFDDIVIDDSNKDDDVTAGDNAQESVDDLNNAEEEHNAEDAEEDKPEA
modifications: source: /note="strain 30SC"
notes: protein of the 168 nutritive polypeptide library
B2: SEQID-00581: protein of the 168 nutritive polypeptide library (protein)
chain: MPKRQRKLAPPRGYKMHVKKGDTVQVIAGRDKGKVGEVISTLPKLSKVVVRDVNVRTKHVKPQQEGEGGRIVNFEAPIHSSNVMLYSTKEKVASRVSYTFTEDGRKVRMLKKTGEVID
modifications: Arthrospira platensis NIES-39
notes: as for B1
B3: SEQID-00574: protein of the 168 nutritive polypeptide library (protein, listed as Lactobacillus acidophilus)
chain: MPTINQLVRKGRHSKVTKSKSPALNYSYNSMKKESVFNPAPQMRGVATRVGTMTPKKPNSALRKYARVRLSNLIEVTAYIPGEGHNLQEHSVVLIRGGRVKDLPGVRYHIVRGALDTAGVDGRKQSRSKYGAKKD
modifications: source: /note="strain 30SC"
notes: as for B1
B4: SEQID-00541: protein of the 168 nutritive polypeptide library (protein, listed as Agaricus bisporus)
chain: MVRISVLNDCLKSICNASRRGKRQVIVRPSSKVVVKFLSVMQRHGYIGEFEIIDDHRGGKIIVQLNGRLNKTGVISPRFNVQHNRIEQWINYLLPSRGIGIIVLTTSSGILDHEEARRKNVGGKLLGYVY
modifications: source: /note="var. bisporus"; source: /note="strain H97 / ATCC MYA-4626 / FGSC 10389"
notes: as for B1
B5: SEQID-00599: protein of the 168 nutritive polypeptide library (protein, listed as Agaricus bisporus)
chain: MSESLRYLGSLEGHKGWVTAIATSSENPDMILTASRDKTIIVWQLTREDDSYGYPKRILHGHNHFVSDVVISSDGQFALSSSWDHTLRLWDLNTGVTTRRFVGHSSDVLSVSFSADNRQIVSGSRDRTIKLWNTLGECKFDIKEDGHSEWVSCVRFSPNVANPVIVSAGWDKVVKVWELSKFKLKTNHYGHTGYINTVSVSPDGSLAASGGKDGITMLWDLNEGKHLYSLEAGDVVNALVFSPNRYWLCAATASCVKIFDLESKSIVDELKPTYTDVGEDARQPECVSIAWSADGQTLFTGYTDNAVRVWIVTS
modifications: source: /note="var. bisporus"; source: /note="strain H97 / ATCC MYA-4626 / FGSC 10389"
notes: as for B1
B6: SEQID-00555: protein of the 168 nutritive polypeptide library (protein)
chain: MQAQEIIRAIEQEEIESVKTNVQKESIPKIYVGDTVKVGVRITEGGKERIQPYQGTVIAMRNGGINETITVRRIFQGVGVERVFLLHSPRIASIKVIMRGKVRRAKLYYLRDRVGKATRVPQRFDRPL
modifications: Arthrospira platensis NIES-39
notes: as for B1
B7: SEQID-00591: protein of the 168 nutritive polypeptide library (protein, listed as Saccharomyces cerevisiae)
chain: MLNRCISRNTRLPVNLRIASRFYSDGPLGGAGPGNPQDIFIKRERAKEDYYARQQEREQLAHVKEQLKEHKKKLENLENKINNLSK
modifications: source: /note="strain ATCC 204508 / S288c"
notes: as for B1
B8: SEQID-00573: protein of the 168 nutritive polypeptide library (protein, listed as Cicer arietinum)
chain: MAPAKAEKKPAEKKPAAEKAPAEKKPKAEKKISKEGTSDKKKKRVKKSVETYKIYIFKVLKQVHPDIGISSKAMGIMNSFINDIFEKLAQEASRLARYNKKPTITSREIQTAVRLVLPGELAKHAVSEGTKAVTKFTSS
B9: SEQID-00564: protein of the 168 nutritive polypeptide library (protein)
chain: MAPKAEKKPAAKKPAEEEPAAPAEKAPAGKKPDLIKRLPAGKSAGKEGGVDKKGRKKAKKSVETYKIYIFKVLKQVHPDIGISSKAMSIMNSFINDIFEKLAGEAAKLARYNKKPTITSREIQTSVRLVLPGELAKHAVSEGTKAVTKFTSS
modifications: Zea mays
notes: as for B1
B10: SEQID-00590: protein of the 168 nutritive polypeptide library (protein, listed as Lactobacillus acidophilus)
chain: MANKAELVSEVASKTKLTKKEVAAAVDAIFGSIQDNLAKGEKVQLIGFGTFEVRHRAARKGRNPQTGDEIEIPASEVPAFKPGKALKEAVK
modifications: source: /note="strain 30SC"
notes: as for B1
B11: SEQID-00540: protein of the 168 nutritive polypeptide library (protein)
chain: MARIAGVDLPRDKRVEIGLTYIYGIGLSRSKEILAETGVNPDTRVKDLTDADVAALRSVIQTNYQVEGDLRRLEAMSIKRLMDIGTYRGRRHRMGLPVRGQRTRTNARTRRGVRRTVAGKKKAASKK
modifications: Arthrospira platensis C1
notes: as for B1
B12: SEQID-00545: protein of the 168 nutritive polypeptide library (protein, listed as Saccharomyces cerevisiae)
chain: MLSRAIFRNPVINRTLLRARPGAYHATRLTKNTFIQSRKYSDAHDEETFEEFTARYEKEFDEAYDLFEVQRVLNNCFSYDLVPAPAVIEKALRAARRVNDLPTAIRVFEALKYKVENEDQYKAYLDELKDVRQELGVPLKEELFPSSS
modifications: source: /note="strain ATCC 204508 / S288c"
notes: as for B1
B13: SEQID-00570: protein of the 168 nutritive polypeptide library (protein, listed as Saccharomyces cerevisiae)
chain: MFLRNSVLRTAPVLRRGITTLTPVSTKLAPPAAASYSQAMKANNFVYVSGQIPYTPDNKPVQGSISEKAEQVFQNVKNILAESNSSLDNIVKVNVFLADMKNFAEFNSVYAKHFHTHKPARSCVGVASLPLNVDLEMEVIAVEKN
modifications: source: /note="strain ATCC 204508 / S288c"
notes: as for B1
B14: SEQID-00592: protein of the 168 nutritive polypeptide library (protein)
chain: MAQTVVLKVGMSCEGCVGAVKRVLGKMEGVESYDVDIMEQKVTVKGNVTPDAVLQTVSKTGKKTSFWEAEAVTSESATPAGATA
modifications: Zea mays
notes: as for B1
B15: SEQID-00544: protein of the 168 nutritive polypeptide library (protein, listed as Gadus morhua)
chain: MGTRLHQTNTMKFAALALALLLAVGSHAAAMQSDAPSQLAHIRSAVGMYLDQVKDSAARSLDHLDGTEYESYKAQLATSLDSLQASIKTAQAGAEPYTDAAVAQVMEATTEVRASIMADIETLRTGPGPKREALKKVVDGHI
B16: SEQID-00552: protein of the 168 nutritive polypeptide library (protein, listed as Saccharomyces cerevisiae)
chain: MSNMMNKFAEKLQGNDDSHQKGKNAKSSNKERDDMNMDMGMGHDQSEGGMKMGHDQSGTKMNAGRGIANDWKTYENMKK
modifications: source: /note="strain ATCC 204508 / S288c"
notes: as for B1
B17: SEQID-00536: protein of the 168 nutritive polypeptide library (protein, listed as Solanum lycopersicum)
chain: MEEEKHHHHHLFHHKDKAEEGPVDYEKEIKHHKHLEQIGKLGTVAAGAYALHEKHEAKKDPEHAHKHKIEEEIAAAAAVGAGGFAFHEHHEKKDAKKEEKKAEGGHHHLF

Experiment: SGF digest of 168 nutritive polypeptide library, intact protein by LC-MS/MS
Type: in vitro ADME
Details: 168 nutritive polypeptide library SGF digest, LC-MS/MS spectral counts
Description: The in vitro intact half-life of multiple polypeptides in a complex mixture was determined using the simulated gastric in vitro digestion described above. Briefly, the 168 nutritive polypeptide library was generated as described herein by cloning, transforming, and expressing a gene library encoding 168 proteins as a single mixture. The recombinantly expressed proteins were purified from host cell proteins by IMAC purification as described herein.
The 168 Protein Library was treated with SGF as described above and the t=0 and t=10 min samples were analyzed for intact protein by LC-MS/MS. To begin, 10 μg of sample was loaded onto a 10% SDS-PAGE gel (Invitrogen) and run approximately 5 cm into the gel. The gel was excised into ten fractions from 100 kD to the dye front and the gel slices were processed by washing with 25 mM ammonium bicarbonate, followed by acetonitrile. Gel fractions were then reduced with 10 mM dithiothreitol at 60° C., followed by alkylation with 50 mM iodoacetamide at room temperature. Finally, the samples were digested with trypsin (Promega) at 37° C. for 4 h and the digestions were quenched with the addition of formic acid. The samples were then analyzed by nano LC/MS/MS using an EasynLC 1000 HPLC system interfaced to a ThermoFisher Q Exactive. Peptides were loaded on a trapping column and eluted over a 75 μm analytical column at 350 nL/min; both columns were packed with PepMap C18 3 μm resin (ThemoFisher). A 1 hour gradient was employed. The mass spectrometer was operated in data-dependent mode, with MS and MS/MS performed in the Orbitrap at 70,000 FWHM resolution and 17,500 FWHM resolution, respectively. The fifteen most abundant ions were selected for MS/MS. Data were searched against an appropriate database using Mascot to identify peptides. Mascot DAT files were parsed into the Scaffold software for validation, filtering and to create a nonredundant list per sample. Data were filtered at 1% protein and peptide false discovery rate (FDR) and requiring at least two unique peptides per protein. A full list of detected proteins and their spectral counts (SpC) was generated and reported as a function of each collected gel fraction. SpC are a count of the number of spectra identified for a given protein and are used as a measure of relative protein abundance (Liu, H. et al., Analytical Chemistry 2004, 76: 4193-4201). To calculate the percentage of intact protein remaining at the 10 min time point of the SGF digest the number of SpC representative of intact peptide in the t=10 min sample were divided by the number of SpC representative of intact peptide in the t=0 min sample. The number of SpC representative of intact peptide was defined as the sum of the SpC in the fraction with the highest number of SpC assigned to that protein in the t=0 min sample and the two flanking fractions.

| Molecule | % Intact Protein at 10 min [%] |
| --- | --- |
| B1 | 0 |
| B2 | 33.3 |
| B3 | 0 |
| B4 | 0 |
| B5 | 0 |
| B6 | 6.8 |
| B7 | 20 |
| B8 | 66.7 |
| B9 | 89.6 |
| B10 | 0 |
| B11 | 0 |
| B12 | 0 |
| B13 | 91.4 |
| B14 | 24.3 |
| B15 | 0 |
| B16 | 79 |
| B17 | 11.8 |
